Experimental data taken from patent US12605539B2, “Methods and systems for delivering drugs through skin of a body” (PASSPORT TECHNOLOGIES, INC., priority 2019, dated 2026).
Values belong to the compound of their own block, whether it stands above or below them.

How the values were obtained:
[1] = Blood concentration of long-acting protein (Etanercept) after patch with or without microporation or Sub Q; type: in vivo, rats
Description: Table 4 below provides data of one group (group 1) of a patch 102 containing a long-acting protein, for example Etanercept, applied without any microporation, three groups (groups 2-4) of microporation values for use with patches 102, and one group (group 5) of injected administration of the long-acting protein. Table 6 below provides details of the components of the patch or drug formulation administered according to the groups 1-5.
The graph 1100 includes the concentration of the long-acting protein in nanograms/milliliter (ng/mL) along the y-axis and time in hours (hr) along the x-axis. […] The line 1102 represents the group 1 patch 102 with no microporation. The line 1104 represents the group 2 microporation parameters and the group 2 patch 102 parameters. The line 1106 represents the group 3 microporation parameters and the group 3 patch 102 parameters. The line 1108 represents the group 4 microporation parameters and the group 4 patch 102 parameters. The line 1110 represents the injected long-acting protein. Each of the three lines 1104, 1106, and 1108 follow the same general trend. For each of the groups 2-4 of parameters, the concentrations of the long-acting protein generally increase to a maximum concentration relatively quickly before gradually lessening, finally reaching a concentration of 0. The parameters of groups 3 and 4 are shown by line 1106 and 1108 to have the highest concentration level spike while the group 4 parameters result in the higher long term concentration. The parameters of group 2 are shown by line 1104 to have a generally lower concentration levels throughout as compared to the groups 3 and 4 parameters. The group 1 and group 5 administrations are lower than all of the group 2-4 administrations. Thus, for the long-acting protein, the patch administration at skin locations treated with microporation result in better bioavailabilities than even the injected administration of the drug, as detailed in Table 7 below. The graphs 1100 and 1120 also show what effects the additional components in the drug formulation (for example, sucrose, urea, and so forth) may have on the bioavailability and blood concentrations of the long-acting protein in rats.
Based on the graphs 1100 and 1120, the area under the curve for each of groups 1-5 is shown above in Table 7. […] The administrations using the patches 102 with the different microporation parameters are shown to result in the greatest concentration levels of the drug available for the longest durations.

[2] = Blood concentration of long-acting protein (Etanercept), patch matrix comparison (Tables 8-10, FIG. 12); type: in vivo, rats; conditions: for peak concentration: 5.0 mg + sucrose 10 mg, 400 pores, 5.2 mJ/filament
Description: Table 8 below provides data of two groups (groups 1 and 2) of microporation values for use with a patch 102 containing a long-acting protein, for example Etanercept. Table 10 below provides details of the components of the patch or drug formulation administered according to the groups 1 and 2. As shown, both groups have the same drug formulation of the long-acting protein and sucrose in the same quantities.
The graph 1200 includes the concentration of the long-acting protein in nanograms/milliliter (ng/mL) along the y-axis and time in hours (hr) along the x-axis. […] The line 1202 represents the group 1 patch 102 with microporation parameter according to Table 8 and patch 102 parameters according to Table 9. The line 1204 represents the group 2 patch 102 with microporation parameter according to Table 8 and patch 102 parameters according to Table 9. The two lines 1202 and 1204 follow different trends. The line 1202 spikes quickly to a peak of above 800 ng/mL and then remains generally between 500 and 700 ng/mL until at least about 70 hours. […] This highlights the effects that the patch 102 parameters can have on the administration of the drug formulation.

[3] = Blood concentration of long-acting peptide (Semaglutide) after microporation patch, Sub Q or oral administration; type: in vivo, hairless Guinea pigs
Description: Table 1 below provides data of three groups of microporation values used to create pathways in the skin in hairless Guinea pigs before applying the patch 102 containing a long-acting peptide once weekly, for example Semaglutide. Table 2 below provides data of six (6) groups of drug administration: three (3) groups for the patch 102, one (1) group for oral administration of the long-acting peptide, and two (2) groups for injected administration of the long-acting peptide.
Groups 1-3 in Tables 1 and 2 correspond to combinations of patches 102 and the microporation parameters for a particular administration. For example, the group 1 microporation parameters of Table 1 apply in conjunction with the administration of the patch 102 according to the parameters in Group 1 of Table 2. Accordingly, the patch 102 of group 1 has the nonwoven matrix, water holding material thickness of 38 μm, water holding material weight of 12 g/m^2, and WHC of […]. The patch 102 of group 1 includes a drug of 1 mg and a total solid weight of 3.25 mg with an area of 0.5 cm^2. This patch 102 is applied to an area of the skin having 200 pathways created according to the group 1 microporation parameters, where the energy applied to the microporation device is 5.2 mJ/filament, the filaments 200 are made from stainless steel and have a treated area of 10% per square centimeter of skin, where the filaments 200 treat an area of 0.5 cm^2. Similarly, group 2 of the patch 102 parameters applies to group 2 of the microporation parameters and group 3 of the patch 102 parameters applies to group 3 of the microporation parameters.
The graph 1000 includes the concentration of the long-acting peptide in nanograms/milliliter (ng/mL) along the y-axis and time in hours (hr) along the x-axis. […] The line 1002 represents the group 1 microporation parameters and the group 1 patch 102 parameters. The line 1004 represents the group 2 microporation parameters and the group 2 patch 102 parameters. The line 1006 represents the group 3 microporation parameters and the group 3 patch 102 parameters. Each of the three lines 1002, 1004, and 1006 follow the same general trend. For each of the groups 1-3 of parameters, the concentrations of the long-acting peptide generally increase to a maximum concentration relatively quickly before gradually lessening, finally reaching a concentration of 0.
The graph 1020 includes the concentration of the long-acting peptide in nanograms/milliliter (ng/mL) along the y-axis and time in hours (hr) along the x-axis. […] The line 1022 represents the group 4 injected drug. The line 1024 represents the group 5 injected drug. The line 1026 represents the group 6 […] drug. Each of the lines 1022 and 1024 follow the same general trend, rising to a highest level of concentration before gradually falling and approaching a concentration level of 0. […] The parameters of group 5 are shown by line 1024 to have a higher concentration level spike for the duration of the bioavailability of the long-acting polypeptide in the body as compared to the parameters of group 4 shown by line 1022.
The graph 1040 is zoomed out view of the graph 1000, giving a higher level view of the relationships of the lines 1002, 1004, and 1006. Similarly, the graph 1060 is a zoomed out view of the graph 1020, showing that the line 1026 (oral consumption of the long-lasting peptide) hovers around a concentration of 10 ng/mL and is not 0, as it appears from the graph 1020.
Based on the graphs 1000, 1020, 1040, and 1060, the area under the curve for each of groups 1-6 is shown below in Table 3: […]

[4] = group 1: patch 5.0 mg + sucrose 5 mg, without microporation
[5] = group 2: patch 5.0 mg + sucrose 5 mg, 400 pores, 5.2 mJ/filament
[6] = group 3: patch 5.0 mg + sucrose 5 mg + urea 5 mg, 400 pores, 5.2 mJ/filament
[7] = group 4: patch 5.0 mg + sucrose 5 mg + disodium citrate 5 mg, 400 pores, 5.2 mJ/filament

Compound: Etanercept
- AUC [1, 4]: 0.172 µg·h/mL
- BA [1, 4]: 0.0%
- Cmax [1, 4]: 9.6 ng/mL
- AUC [1, 5]: 208.5929 µg·h/mL
- BA [1, 5]: 94.3%
- Cmax [1, 5]: 5189.0 ng/mL
- AUC [1, 6]: 604.0884 µg·h/mL
- BA [1, 6]: 99.4%
- Cmax [1, 6]: 16578.6 ng/mL
- AUC [1, 7]: 712.8251 µg·h/mL
- BA [1, 7]: 117.2%
- Cmax [1, 7]: 16982.4 ng/mL
- AUC ([1]; group 5: Sub Q 1.0 mg): 121.5723 µg·h/mL
- BA ([1]; group 5: Sub Q 1.0 mg): 100.0%
- Cmax ([1]; group 5: Sub Q 1.0 mg): 1298.7 ng/mL
- peak concentration ([2]; group 1: matrix 38 μm, 12 g/m^2, WHC 4 mg/cm^2): above 800 ng/mL
- concentration at about 70 hours ([2]; group 2 (WHC 30 mg/cm^2)): below 100 ng/mL
- time of peak concentration ([2]; group 2 (WHC 30 mg/cm^2)): about 32 hours
- peak concentration ([2]; group 2: matrix 336 μm, 50 g/m^2, WHC 30 mg/cm^2): about 275 ng/mL

- BA ([3]; group 1: patch 1 mg (2 mg/cm^2), 0.5 cm^2, 200 pores, 5.2 mJ/filament): 63.6%
- BA ([3]; group 2: patch 2 mg (2 mg/cm^2), 1.0 cm^2, 400 pores, 5.2 mJ/filament): 47.0%
- BA ([3]; group 3: patch 4 mg (2 mg/cm^2), 2.0 cm^2, 800 pores, 5.2 mJ/filament): 31.8%
- BA ([3]; group 4: Sub Q 0.5 mg): 81.8%
- BA ([3]; group 5: Sub Q 1.0 mg): 100.0%
- BA ([3]; group 6: Oral 2.0 mg): 0.0%
Compound: CC[C@H](C)[C@H](NC(=O)[C@H](Cc1ccccc1)NC(=O)[C@H](CCC(=O)O)NC(=O)[C@H](CCCCNC(=O)COCCOCCNC(=O)COCCOCCNC(=O)CC[C@H](NC(=O)CCCCCCCCCCCCCCCCC(=O)O)C(=O)O)NC(=O)[C@H](C)NC(=O)[C@H](C)NC(=O)[C@H](CCC(N)=O)NC(=O)CNC(=O)[C@H](CCC(=O)O)NC(=O)[C@H](CC(C)C)NC(=O)[C@H](Cc1ccc(O)cc1)NC(=O)[C@H](CO)NC(=O)[C@H](CO)NC(=O)[C@@H](NC(=O)[C@H](CC(=O)O)NC(=O)[C@H](CO)NC(=O)[C@@H](NC(=O)[C@H](Cc1ccccc1)NC(=O)[C@@H](NC(=O)CNC(=O)[C@H](CCC(=O)O)NC(=O)C(C)(C)NC(=O)[C@@H](N)Cc1cnc[nH]1)[C@@H](C)O)[C@@H](C)O)C(C)C)C(=O)N[C@@H](C)C(=O)N[C@@H](Cc1c[nH]c2ccccc12)C(=O)N[C@@H](CC(C)C)C(=O)N[C@H](C(=O)N[C@@H](CCCNC(=N)N)C(=O)NCC(=O)N[C@@H](CCCNC(=N)N)C(=O)NCC(=O)O)C(C)C [Semaglutide]
